B1: EHEE_rd2_0196 (parent)
chain: TETRTFDSEEEAKKAQKEAEKQGRTVTITRRDDRWEVRFD

Variants of: B1
Assay: folding stability dG (cDNA display proteolysis); higher = more stable
Conditions: PBS, room temperature

First: TETRTFDSEEEAKKAQKEAEKQGRTVTITERDDRWEVRFD
Second: TETRTFDSEEEAKKAQKEAEKQGRTVTITIRDDRWEVRFD
The “folding stability dG” value of the first is lower: 2.02 kcal/mol for the first, 2.46 kcal/mol for the second.

Compared with TETRTFDSEEEAKKAQKEAEKQGRTVTITSRDDRWEVRFD, TETRTFDSEEEAKKAQKEAEKQGRTVTITQRDDRWEVRFD is higher in “folding stability dG” value: 1.94 kcal/mol for the first, 2.81 kcal/mol for the second.

Compared with TETRTFDSEEEAKKAQKEAEKQGRTVTITARDDRWEVRFD, TETRTFDSEEEAKKAQKEAEKQGRTVTITPRDDRWEVRFD is lower in “folding stability dG” value: 2.3 kcal/mol for the first, 2.06 kcal/mol for the second.

First: TETRTFDSEEEAKKAQKEAEKQGRTVTITGRDDRWEVRFD
Second: TETRTFDSEEEAKKAQKEAEKQGRTVTITHRDDRWEVRFD
The “folding stability dG” value of the first is lower: 1.71 kcal/mol for the first, 2.59 kcal/mol for the second.

Compared with TETRTFDSEEEAKKAQKEAEKQGRTVTITTRDDRWEVRFD, TETRTFDSEEEAKKAQKEAEKQGRTVTITFRDDRWEVRFD is higher in “folding stability dG” value: 1.91 kcal/mol for the first, 3.33 kcal/mol for the second.

Compared with TETRTFDSEEEAKKAQKEAEKQGRTVTITYRDDRWEVRFD, TETRTFDSEEEAKKAQKEAEKQGRTVTITVRDDRWEVRFD is lower in “folding stability dG” value: 2.83 kcal/mol for the first, 2.5 kcal/mol for the second.

First: TETRTFDSEEEAKKAQKEAEKQGRTVTITMRDDRWEVRFD
Second: TETRTFDSEEEAKKAQKEAEKQGRTVTITKRDDRWEVRFD
The “folding stability dG” value of the first is lower: 2.8 kcal/mol for the first, 3.11 kcal/mol for the second.

First: TETRTFDSEEEAKKAQKEAEKQGRTVTITLRDDRWEVRFD
Second: TETRTFDSEEEAKKAQKEAEKQGRTVTITNRDDRWEVRFD
The “folding stability dG” value of the first is higher: 2.83 kcal/mol for the first, 2.25 kcal/mol for the second.

First: TETRTFDSEEEAKKAQKEAEKQGRTVTITDRDDRWEVRFD
Second: TETRTFDSEEEAKKAQKEAEKQGRTVTITWRDDRWEVRFD
The “folding stability dG” value of the first is lower: 0.983 kcal/mol for the first, 2.68 kcal/mol for the second.

Going from TETRTFDSEEEAKKAQKEAEKQGRTVTITRHDDRWEVRFD to TETRTFDSEEEAKKAQKEAEKQGRTVTITRIDDRWEVRFD, the “folding stability dG” value rises from 2.69 kcal/mol to 3.27 kcal/mol.

Going from TETRTFDSEEEAKKAQKEAEKQGRTVTITRLDDRWEVRFD to TETRTFDSEEEAKKAQKEAEKQGRTVTITRQDDRWEVRFD, the “folding stability dG” value falls from 2.9 kcal/mol to 2.55 kcal/mol.

Going from TETRTFDSEEEAKKAQKEAEKQGRTVTITRSDDRWEVRFD to TETRTFDSEEEAKKAQKEAEKQGRTVTITRADDRWEVRFD, the “folding stability dG” value rises from 2.29 kcal/mol to 2.38 kcal/mol.

Going from TETRTFDSEEEAKKAQKEAEKQGRTVTITRVDDRWEVRFD to TETRTFDSEEEAKKAQKEAEKQGRTVTITRPDDRWEVRFD, the “folding stability dG” value falls from 3.43 kcal/mol to 0.846 kcal/mol.

Going from TETRTFDSEEEAKKAQKEAEKQGRTVTITRYDDRWEVRFD to TETRTFDSEEEAKKAQKEAEKQGRTVTITRGDDRWEVRFD, the “folding stability dG” value falls from 2.57 kcal/mol to 1.68 kcal/mol.

Compared with TETRTFDSEEEAKKAQKEAEKQGRTVTITRTDDRWEVRFD, TETRTFDSEEEAKKAQKEAEKQGRTVTITRKDDRWEVRFD is higher in “folding stability dG” value: 2.56 kcal/mol for the first, 3.13 kcal/mol for the second.

First: TETRTFDSEEEAKKAQKEAEKQGRTVTITRFDDRWEVRFD
Second: TETRTFDSEEEAKKAQKEAEKQGRTVTITRDDDRWEVRFD
The “folding stability dG” value of the first is higher: 2.75 kcal/mol for the first, 1.79 kcal/mol for the second.

Compared with TETRTFDSEEEAKKAQKEAEKQGRTVTITREDDRWEVRFD, TETRTFDSEEEAKKAQKEAEKQGRTVTITRNDDRWEVRFD is higher in “folding stability dG” value: 2 kcal/mol for the first, 2.57 kcal/mol for the second.

First: TETRTFDSEEEAKKAQKEAEKQGRTVTITRWDDRWEVRFD
Second: TETRTFDSEEEAKKAQKEAEKQGRTVTITRMDDRWEVRFD
The “folding stability dG” value of the first is lower: 2.18 kcal/mol for the first, 2.78 kcal/mol for the second.

Going from TETRTFDSEEEAKKAQKEAEKQGRTVMITRRDDRWEVRFD to TETRTFDSEEEAKKAQKEAEKQGRTVPITRRDDRWEVRFD, the “folding stability dG” value falls from 2 kcal/mol to 0.682 kcal/mol.

Going from TETRTFDSEEEAKKAQKEAEKQGRTVYITRRDDRWEVRFD to TETRTFDSEEEAKKAQKEAEKQGRTVIITRRDDRWEVRFD, the “folding stability dG” value rises from 1.95 kcal/mol to 2.94 kcal/mol.

First: TETRTFDSEEEAKKAQKEAEKQGRTVQITRRDDRWEVRFD
Second: TETRTFDSEEEAKKAQKEAEKQGRTVAITRRDDRWEVRFD
The “folding stability dG” value of the first is higher: 2.52 kcal/mol for the first, 2.16 kcal/mol for the second.

First: TETRTFDSEEEAKKAQKEAEKQGRTVRITRRDDRWEVRFD
Second: TETRTFDSEEEAKKAQKEAEKQGRTVNITRRDDRWEVRFD
The “folding stability dG” value of the first is higher: 2.56 kcal/mol for the first, 2.11 kcal/mol for the second.

Going from TETRTFDSEEEAKKAQKEAEKQGRTVCITRRDDRWEVRFD to TETRTFDSEEEAKKAQKEAEKQGRTVLITRRDDRWEVRFD, the “folding stability dG” value falls from 3.03 kcal/mol to 1.89 kcal/mol.

First: TETRTFDSEEEAKKAQKEAEKQGRTVWITRRDDRWEVRFD
Second: TETRTFDSEEEAKKAQKEAEKQGRTVDITRRDDRWEVRFD
The “folding stability dG” value of the first is higher: 1.8 kcal/mol for the first, 1.37 kcal/mol for the second.

Compared with TETRTFDSEEEAKKAQKEAEKQGRTVGITRRDDRWEVRFD, TETRTFDSEEEAKKAQKEAEKQGRTVSITRRDDRWEVRFD is higher in “folding stability dG” value: 1.36 kcal/mol for the first, 2.76 kcal/mol for the second.

First: TETRTFDSEEEAKKAQKEAEKQGRTVKITRRDDRWEVRFD
Second: TETRTFDSEEEAKKAQKEAEKQGRTVVITRRDDRWEVRFD
The “folding stability dG” value of the first is lower: 2.45 kcal/mol for the first, 2.88 kcal/mol for the second.

Going from TETRTFDSEEEAKKAQKEAEKQGRTVHITRRDDRWEVRFD to TETRTFDSEEEAKKAQKEAEKQGRTVEITRRDDRWEVRFD, the “folding stability dG” value falls from 2.59 kcal/mol to 2.03 kcal/mol.

Going from TETRTFDSEEEAKKAQKEAEKQGRTVFITRRDDRWEVRFD to TETRTFDSEEEAKKAQKEAEKQGRTVTINRRDDRWEVRFD, the “folding stability dG” value rises from 1.94 kcal/mol to 2.45 kcal/mol.

Compared with TETRTFDSEEEAKKAQKEAEKQGRTVTIIRRDDRWEVRFD, TETRTFDSEEEAKKAQKEAEKQGRTVTIKRRDDRWEVRFD is lower in “folding stability dG” value: 3.19 kcal/mol for the first, 2.44 kcal/mol for the second.

Compared with TETRTFDSEEEAKKAQKEAEKQGRTVTILRRDDRWEVRFD, TETRTFDSEEEAKKAQKEAEKQGRTVTIDRRDDRWEVRFD is lower in “folding stability dG” value: 2.53 kcal/mol for the first, 1.71 kcal/mol for the second.

First: TETRTFDSEEEAKKAQKEAEKQGRTVTIRRRDDRWEVRFD
Second: TETRTFDSEEEAKKAQKEAEKQGRTVTIERRDDRWEVRFD
The “folding stability dG” value of the first is higher: 2.76 kcal/mol for the first, 2.48 kcal/mol for the second.
